Experimental data published in article PMC12395051.

Key:
[1] = biological target: Recombinant SARS-CoV-2 spike (S) protein (SARS-CoV-2) (UniProt P0DTC2)
[2] = biological target: Recombinant SARS-CoV-2 spike (S) protein (SARS-CoV-2) (UniProt P0DTC2); remark: listed apart in the source

Row | Substance | cell binding assay: binding of SARS-CoV-2 S lentiviral pseudoparticles pre-treated with FH (20 ug/ml) to A549-hACE2+TMPRSS2 cells, decrease against untreated pseudoparticles [1] | luciferase reporter activity: entry of SARS-CoV-2 S lentiviral pseudoparticles pre-treated with FH (20 ug/ml) into A549-hACE2+TMPRSS2 cells, reduction against untreated pseudoparticles [2] | cell binding assay: binding of SARS-CoV-2 S lentiviral pseudoparticles pre-treated with FP (20 ug/ml) to A549-hACE2+TMPRSS2 cells, increase against untreated pseudoparticles [1] | luciferase reporter activity: entry of SARS-CoV-2 S lentiviral pseudoparticles pre-treated with FP (20 ug/ml) into A549-hACE2+TMPRSS2 cells, increase against untreated pseudoparticles [2]
1 | Human complement factor H (from UniProt P08603 19-1231) (natural protein) | 35% | 25% |  | 
2 | Human native properdin (from UniProt P27918 28-469) (natural protein) |  |  | 30% | 80%
